Reference: article PMC4231456, “HIV-1 Tat protein binds to TLR4-MD2 and signals to induce TNF-α and IL-10” (Retrovirology, 2013)

Columns and labels:
[1] = molecular target: GST-Tat 1-101 (HIV-1 Tat protein) (HIV-1); assay: ELISA; competition: GST-Tat 1-101 or GST-Tat 1-45 (0.1 μM) pre-incubated 1 h at 37°C with increasing amounts of soluble rhMD2, rhTLR4-MD2, rhTLR4 or rhCD14, then 2 h on coated rhMD2 (or TLR4-MD2); OD 450 nm; K0.5 taken as an apparent dissociation constant
[2] = molecular target: T1, recombinant human TLR4 (human, UniProt O00206 24-631); assay: ELISA; rh TLR4 coated at 1 μg/ml; MD2 at 1-10 μg/ml in solution; detected with anti-MD2 monoclonal antibodies; details: both partners purified
T1 construct: human Toll-like receptor 4 (TLR4), recombinant, used coated or soluble without MD2; also called rhTLR4; rh TLR4
T1 sequence (O00206 24-631): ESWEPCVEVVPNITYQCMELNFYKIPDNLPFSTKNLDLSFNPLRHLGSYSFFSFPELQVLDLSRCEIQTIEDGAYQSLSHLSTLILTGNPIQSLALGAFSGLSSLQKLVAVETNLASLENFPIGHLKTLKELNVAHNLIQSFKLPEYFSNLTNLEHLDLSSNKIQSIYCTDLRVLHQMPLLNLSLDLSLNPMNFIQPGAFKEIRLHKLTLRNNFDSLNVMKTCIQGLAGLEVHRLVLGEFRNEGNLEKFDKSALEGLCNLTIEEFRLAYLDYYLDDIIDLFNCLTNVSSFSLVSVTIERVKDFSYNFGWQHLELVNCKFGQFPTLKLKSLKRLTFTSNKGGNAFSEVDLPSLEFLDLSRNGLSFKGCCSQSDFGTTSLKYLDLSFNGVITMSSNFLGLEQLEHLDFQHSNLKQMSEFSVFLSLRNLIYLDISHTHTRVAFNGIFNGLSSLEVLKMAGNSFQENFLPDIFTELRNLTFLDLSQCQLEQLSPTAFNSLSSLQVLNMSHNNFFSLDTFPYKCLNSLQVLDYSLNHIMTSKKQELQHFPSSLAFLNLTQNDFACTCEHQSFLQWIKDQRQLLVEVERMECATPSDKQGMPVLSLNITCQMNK

GST-Tat 1-101 (HIV-1 Tat protein) (HIV-1), sequence (P04614 whole entry): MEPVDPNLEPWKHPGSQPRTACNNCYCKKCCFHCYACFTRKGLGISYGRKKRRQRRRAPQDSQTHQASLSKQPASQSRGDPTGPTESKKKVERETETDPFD

In the case of “recombinant human TLR4-MD2 complex (from UniProt O00206 24-631; Q9Y6Y9 19-160)”, the IC50 [1] is reported as 1 nM.

B1: recombinant human MD2 (natural protein, UniProt Q9Y6Y9 19-160, looked up)
chain: QKQYWVCNSSDASISYTYCDKMQYPISINVNPCIELKRSKGLLHIFYIPRRDLKQLYFNLYITVNTMNLPKRKEVICRGSDDDYSFCRALKGETVNTTISFSFKGIKFSKGKYKCVVEAISGSPEEMLFCLEFVILHQPNSN
notes: human MD2 (lymphocyte antigen 96), soluble recombinant; No catalogue number printed; also called rhMD2; hMD2; source: bought: R&D Systems
In the case of B1, the binding result [2] is reported as “binds”, the IC50 [1] is reported as 4 nM and the percent inhibition of Tat binding to coated MD2 with soluble MD2 at 1 μg/ml [1] is reported as over 95%.
